# Reference: US20140248636
Protein,extent of peptide hydroxylation by MALDI-TOF (RpL8 209-228 peptide (…)),mass increase of the peptide by MALDI-TOF (hydroxylation) (RpL8 209-228 peptide (…)),extent of peptide hydroxylation by MALDI-TOF (RpL27a31-50 peptide (…)),mass increase of the peptide by MALDI-TOF (hydroxylation) (RpL27a31-50 peptide (…))
"NO66 (A116-N641), N-terminally hexa-His tagged, recombinant (protein) QTPSARLVPASAPPARLVEVPAAPVRVVETSALLCTAQHLAAVQSSGAPATASGPQVDNTGGEPAWDSPLRRVLAELNRIPSSRRRAARLFEWLIAPMPPDHFYRRLWEREAVLVRRQDHTYYQGLFSTADLDSMLRNEEVQFGQHLDAARYINGRRETLNPPGRALPAAAWSLYQAGCSLRLLCPQAFSTTVWQFLAVLQEQFGSMAGSNVYLTPPNSQGFAPHYDDIEAFVLQLEGRKLWRVYRPRVPTEELALTSSPNFSQDDLGEPVLQTVLEPGDLLYFPRGFIHQAECQDGVHSLHLTLSTYQRNTWGDFLEAILPLAVQAAMEENVEFRRGLPRDFMDYMGAQHSDSKDPRRTAFMEKVRVLVARLGHFAPVDAVADQRAKDFIHDSLPPVLTDRERALSVYGLPIRWEAGEPVNVGAQLTTETEVHMLQDGIARLVGEGGHLFLYYTVENSRVYHLEEPKCLEIYPQQADAMELLLGSYPEFVRVGDLPCDSVEDQLSLATTLYDKGLLLTKMPLALN",hydroxylated to ˜85% as tested by MALDI-TOF analyses,displayed 16 Da increase in mass,–,–
"Mina53 (A26-V465), N-terminally hexa-His tagged, recombinant (protein) AAGGPSALNFDSPSSLFESLISPIKTETFFKEFWEQKPLLIQRDDPALATYYGSLFKLTDLKSLCSRGMYYGRDVNVCRCVNGKKKVLNKDGKAHFLQLRKDFDQKRATIQFHQPQRFKDELWRIQEKLECYFGSLVGSNVYITPAGSQGLPPHYDDVEVFILQLEGEKHWRLYHPTVPLAREYSVEAEERIGRPVHEFMLKPGDLLYFPRGTIHQADTPAGLAHSTHVTISTYQNNSWGDFLLDTISGLVFDTAKEDVELRTGIPRQLLLQVESTTVATRRLSGFLRTLADRLEGTKELLSSDMKKDFIMHRLPPYSAGDGAELSTPGGKLPRLDSVVRLQFKDHIVLTVLPDQDQSDEAQEKMVYIYHSLKNSRETHMMGNEEETEFHGLRFPLSHLDALKQIWNSPAISVKDLKLTTDEEKESLVLSLWTECLIQVV",–,–,hydroxylated to ˜95% as tested by MALDI-TOF analyses,displayed a 16 Da increase in mass
